Patent US20200149021, “SYSTEM AND METHOD FOR GENOME EDITING” (INSTITUTE OF ZOOLOGY, CHINESE ACADEMY OF SCIENCES, published 2020)

Target: T1, HkCpf1 (Helcococcus kunzii)
T1 chain: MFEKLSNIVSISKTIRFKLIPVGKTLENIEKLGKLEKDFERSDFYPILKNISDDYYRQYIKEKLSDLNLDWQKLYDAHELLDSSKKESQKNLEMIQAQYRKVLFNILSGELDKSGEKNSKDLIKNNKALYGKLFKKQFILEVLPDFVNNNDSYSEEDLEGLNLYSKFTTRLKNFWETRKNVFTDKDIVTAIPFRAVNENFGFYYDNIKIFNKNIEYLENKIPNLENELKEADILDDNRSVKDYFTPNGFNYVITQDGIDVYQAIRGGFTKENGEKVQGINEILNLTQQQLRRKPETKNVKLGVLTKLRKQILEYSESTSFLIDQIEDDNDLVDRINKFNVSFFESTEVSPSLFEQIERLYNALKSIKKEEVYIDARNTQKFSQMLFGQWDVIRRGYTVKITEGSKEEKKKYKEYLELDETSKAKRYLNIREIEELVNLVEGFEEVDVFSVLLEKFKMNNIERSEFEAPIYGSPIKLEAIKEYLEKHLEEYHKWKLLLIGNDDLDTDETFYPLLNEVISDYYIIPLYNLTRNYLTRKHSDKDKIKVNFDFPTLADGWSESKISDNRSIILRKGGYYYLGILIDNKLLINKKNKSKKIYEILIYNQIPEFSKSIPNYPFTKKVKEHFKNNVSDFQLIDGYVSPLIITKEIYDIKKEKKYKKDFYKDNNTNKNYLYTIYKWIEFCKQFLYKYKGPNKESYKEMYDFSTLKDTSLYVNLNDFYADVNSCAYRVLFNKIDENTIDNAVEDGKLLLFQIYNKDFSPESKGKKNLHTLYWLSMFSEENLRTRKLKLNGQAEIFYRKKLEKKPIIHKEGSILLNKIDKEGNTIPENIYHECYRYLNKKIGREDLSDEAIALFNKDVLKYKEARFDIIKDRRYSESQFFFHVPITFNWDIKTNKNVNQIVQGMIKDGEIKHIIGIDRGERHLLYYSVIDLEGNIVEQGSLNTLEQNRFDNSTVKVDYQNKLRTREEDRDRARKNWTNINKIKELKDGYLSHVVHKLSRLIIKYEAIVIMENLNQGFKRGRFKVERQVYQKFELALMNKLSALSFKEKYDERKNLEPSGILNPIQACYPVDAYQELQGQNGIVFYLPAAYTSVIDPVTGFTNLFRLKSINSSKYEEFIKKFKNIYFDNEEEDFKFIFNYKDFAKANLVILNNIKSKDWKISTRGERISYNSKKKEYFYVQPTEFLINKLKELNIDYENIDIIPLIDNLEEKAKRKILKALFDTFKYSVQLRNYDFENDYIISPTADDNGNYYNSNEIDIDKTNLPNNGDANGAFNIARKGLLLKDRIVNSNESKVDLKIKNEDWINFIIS
Test: cell_activity; PAM TTTC; T7EI
Settings: tags: HA (2A-eGFP vector)
Experimental: GFP-positive cells were sorted by FACS, lysed with Buffer L+ 1/100V Protease K (Biotool) at 55° C. for 30 min, inactivated at 95° C. for 5 min, and directly used for PCR detection. Appropriate primers were designed near the Cpf1 targeting site, and the amplified product was purified using DNA Clean & Concentrator™-5 kit (ZYMO Research). 200 ng of purified PCR product was added into 1 uL of NEBuffer2 (NEB) and diluted to 10 uL with ddH₂O. Then, heterodimers were formed by re-annealing according to the previously reported method (Li, W., et al., Simultaneous generation and germline transmission of multiple gene mutations in rat using CRISPR-Cas systems. Nat Biotechnol, 2013. 31(8): p. 684-6). The reannealed product was added with 0.3 uL of T7EI endnucelease and 1/10 V NEBuffer2 (NEB), and digested at 37° C. for 1 h 30 min. Genotype analysis was performed by 3% TAE-Gel electrophoresis. Indels were calculated according to the method reported in the previous article (Cong, L., et al., Multiplex genome engineering using CRISPR/Cas systems. Science, 2013. 339(6121): p. 819-23).
The cells were transfected with Cpf1, crRNA31, and crRNA2 plasmids, and it was confirmed by PCR and T7EI analysis that crRNA31 can increase the editing efficiency of five Cpf1s of ArCpf1, BsCpf1, HkCpf1, PrCpf1, and PxCpf1 at the site MeCP2-4 by two folds (FIG. 13B).

B1: crRNA31 MeCP2 site 4 ; Mouse MeCP2 site 4 (ssRNA ; dsDNA)
RNA: AUUUCUACUAUGGUAGAUGUGUCCAACCUUCAGGCAAGGUG
DNA 1: TTTCGTGTCCAACCTTCAGGCAAGGTG
DNA 2: CACCTTGCCTGAAGGTTGGACACGAAA
- editing efficiency: ~2 fold vs crRNA2
